Assay results taken from US20250116673A1 (published 2025).

Biological target: T1, SARS-CoV-2 Spike protein peptide on HLA-DPA1*01:03 / HLA-DPB1*04:01 (human)
T1 peptide: TFEYVSQPFLMDLE
Assay: multimer staining

B1: TCR4.1 (TCR)
alpha TRAV35 TRAJ42 CDR3: CAGMNYGGSQGNLIF
beta TRBV4-1 TRBJ1-2 CDR3: CASSQGVGYTF
binding result: recognises

B2: TCR6.3 (TCR)
alpha TRAV35 TRAJ42 CDR3: CAGMNYGGSQGNLIF
beta TRBV6-3 TRBJ1-2 CDR3: CASSYRGAYGYTF
binding result: recognises
